What all share (assay): cell-based or functional assay
Assay [1] has as its target CD28 on Jurkat/IL2 reporter cells (human) (UniProt P10747).
In assay [2] the target is PD-L1 on K562/OKT3/PD-L1 artificial antigen presenting cells (UniProt Q9NZQ7).
The target of another assay is CD28 (human) (UniProt P10747).
For a further assay, the target named is PD-L1 (human) (UniProt Q9NZQ7).
Chain of PD-L1 (human) (Q9NZQ7 19-290): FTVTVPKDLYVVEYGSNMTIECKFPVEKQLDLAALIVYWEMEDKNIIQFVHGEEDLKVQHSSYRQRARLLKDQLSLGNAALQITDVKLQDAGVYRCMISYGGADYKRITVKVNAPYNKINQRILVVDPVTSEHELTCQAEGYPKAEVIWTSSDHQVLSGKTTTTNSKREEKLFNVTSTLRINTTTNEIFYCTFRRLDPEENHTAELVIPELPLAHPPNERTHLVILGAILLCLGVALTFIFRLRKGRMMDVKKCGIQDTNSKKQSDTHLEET

Chain of PD-L1 on K562/OKT3/PD-L1 artificial antigen presenting cells (Q9NZQ7 19-290): as above

For “CD80 E35D/M47V/A71G/E88D IgV-Fc (inert) (Fc fusion)”, in assay [1], the Fold Increase over WT CD80-IgV-Fc (RLU, Jurkat/IL2 + K562/OKT3/PD-L1 reporter assay, 50 nM) is 5.9 fold and the Relative Luciferase Units (RLU), Jurkat/IL2 + K562/OKT3/PD-L1 reporter assay, CD80-Fc Conc 50 nM was 1220 RLU. Further, in assay [2], the Fold Increase over WT CD80-IgV-Fc (RLU, Jurkat/IL2 + K562/OKT3/PD-L1 reporter assay, 50 nM) stood at 5.9 fold and the Relative Luciferase Units (RLU), Jurkat/IL2 + K562/OKT3/PD-L1 reporter assay, CD80-Fc Conc 50 nM was found to be 1220 RLU.

As to “CD80 E35D/D46E/M47V/A71D/D90G IgV-Fc (inert) (Fc fusion)”, the Fold Increase over WT CD80-IgV-Fc (RLU, Jurkat/IL2 + K562/OKT3/PD-L1 reporter assay, 50 nM) in assay [1] and in assay [2] was 5.1 fold each time. For the same substance, the Relative Luciferase Units (RLU), Jurkat/IL2 + K562/OKT3/PD-L1 reporter assay, CD80-Fc Conc 50 nM in assay [1] and in assay [2] was 1040 RLU throughout.

On to “CD80 E35D/T41S/M43I/A71G/D90G IgV-Fc (inert) (Fc fusion)”, for which, in assay [1], the Fold Increase over WT CD80-IgV-Fc (RLU, Jurkat/IL2 + K562/OKT3/PD-L1 reporter assay, 50 nM) was 5.4 fold and the Relative Luciferase Units (RLU), Jurkat/IL2 + K562/OKT3/PD-L1 reporter assay, CD80-Fc Conc 50 nM stood at 1120 RLU. Further, in assay [2], the Fold Increase over WT CD80-IgV-Fc (RLU, Jurkat/IL2 + K562/OKT3/PD-L1 reporter assay, 50 nM) turned out to be 5.4 fold and the Relative Luciferase Units (RLU), Jurkat/IL2 + K562/OKT3/PD-L1 reporter assay, CD80-Fc Conc 50 nM worked out at 1120 RLU.

On to “CD80 E35D/Y53H/A71G/D90G/L97R IgV-Fc (inert) (Fc fusion)”, for which, in assay [1], the Fold Increase over WT CD80-IgV-Fc (RLU, Jurkat/IL2 + K562/OKT3/PD-L1 reporter assay, 50 nM) worked out at 8.4 fold and the Relative Luciferase Units (RLU), Jurkat/IL2 + K562/OKT3/PD-L1 reporter assay, CD80-Fc Conc 50 nM was determined as 1720 RLU. For the same substance, in assay [2], the Fold Increase over WT CD80-IgV-Fc (RLU, Jurkat/IL2 + K562/OKT3/PD-L1 reporter assay, 50 nM) was found to be 8.4 fold and the Relative Luciferase Units (RLU), Jurkat/IL2 + K562/OKT3/PD-L1 reporter assay, CD80-Fc Conc 50 nM is 1720 RLU.

As for “CD80 E35D/K37E/M47V/N48D/L85Q/D90N IgV-Fc (inert) (Fc fusion)”, in assay [1], the Fold Increase over WT CD80-IgV-Fc (RLU, Jurkat/IL2 + K562/OKT3/PD-L1 reporter assay, 50 nM) turned out to be 4.1 fold and the Relative Luciferase Units (RLU), Jurkat/IL2 + K562/OKT3/PD-L1 reporter assay, CD80-Fc Conc 50 nM was found to be 851 RLU. Further, in assay [2], the Fold Increase over WT CD80-IgV-Fc (RLU, Jurkat/IL2 + K562/OKT3/PD-L1 reporter assay, 50 nM) is 4.1 fold and the Relative Luciferase Units (RLU), Jurkat/IL2 + K562/OKT3/PD-L1 reporter assay, CD80-Fc Conc 50 nM amounted to 851 RLU.

With “CD80 V22D/E35D/M47L/L85Q IgV-Fc (inert) (Fc fusion)”, in assay [1], the Fold Increase over WT CD80-IgV-Fc (RLU, Jurkat/IL2 + K562/OKT3/PD-L1 reporter assay, 50 nM) was 5.5 fold and the Relative Luciferase Units (RLU), Jurkat/IL2 + K562/OKT3/PD-L1 reporter assay, CD80-Fc Conc 50 nM stood at 1140 RLU. Besides, in assay [2], the Fold Increase over WT CD80-IgV-Fc (RLU, Jurkat/IL2 + K562/OKT3/PD-L1 reporter assay, 50 nM) was found to be 5.5 fold and the Relative Luciferase Units (RLU), Jurkat/IL2 + K562/OKT3/PD-L1 reporter assay, CD80-Fc Conc 50 nM was 1140 RLU.

On to “CD80 A26E/E35D/M47L/A71G IgV-Fc (inert) (Fc fusion)”, for which, in assay [1], the Fold Increase over WT CD80-IgV-Fc (RLU, Jurkat/IL2 + K562/OKT3/PD-L1 reporter assay, 50 nM) turned out to be 8.5 fold and the Relative Luciferase Units (RLU), Jurkat/IL2 + K562/OKT3/PD-L1 reporter assay, CD80-Fc Conc 50 nM came out at 1750 RLU. Moreover, in assay [2], the Fold Increase over WT CD80-IgV-Fc (RLU, Jurkat/IL2 + K562/OKT3/PD-L1 reporter assay, 50 nM) was 8.5 fold and the Relative Luciferase Units (RLU), Jurkat/IL2 + K562/OKT3/PD-L1 reporter assay, CD80-Fc Conc 50 nM worked out at 1750 RLU.

“CD80 E35D/T41S/M43V/M47I/L70M/A71G IgV-Fc (inert) (Fc fusion)”: the Fold Increase over WT CD80-IgV-Fc (RLU, Jurkat/IL2 + K562/OKT3/PD-L1 reporter assay, 50 nM) in assay [1] and in assay [2] was 8.1 fold each time. For the same substance, the Relative Luciferase Units (RLU), Jurkat/IL2 + K562/OKT3/PD-L1 reporter assay, CD80-Fc Conc 50 nM in assay [1] and in assay [2] was 1670 RLU throughout.

“CD80 E35D/T41S/M47V/L97Q IgV-Fc (inert) (Fc fusion)”: in assay [1], the Fold Increase over WT CD80-IgV-Fc (RLU, Jurkat/IL2 + K562/OKT3/PD-L1 reporter assay, 50 nM) was determined as 2.9 fold and the Relative Luciferase Units (RLU), Jurkat/IL2 + K562/OKT3/PD-L1 reporter assay, CD80-Fc Conc 50 nM was determined as 594 RLU. In assay [2], the Fold Increase over WT CD80-IgV-Fc (RLU, Jurkat/IL2 + K562/OKT3/PD-L1 reporter assay, 50 nM) came out at 2.9 fold and the Relative Luciferase Units (RLU), Jurkat/IL2 + K562/OKT3/PD-L1 reporter assay, CD80-Fc Conc 50 nM was determined as 594 RLU.

In the case of “CD80 V22D/E35D/M47L/L70M/L97Q IgV-Fc (inert) (Fc fusion)”, in assay [1], the Fold Increase over WT CD80-IgV-Fc (RLU, Jurkat/IL2 + K562/OKT3/PD-L1 reporter assay, 50 nM) worked out at 7.5 fold and the Relative Luciferase Units (RLU), Jurkat/IL2 + K562/OKT3/PD-L1 reporter assay, CD80-Fc Conc 50 nM amounted to 1540 RLU. In addition, in assay [2], the Fold Increase over WT CD80-IgV-Fc (RLU, Jurkat/IL2 + K562/OKT3/PD-L1 reporter assay, 50 nM) came to 7.5 fold and the Relative Luciferase Units (RLU), Jurkat/IL2 + K562/OKT3/PD-L1 reporter assay, CD80-Fc Conc 50 nM was determined as 1540 RLU.

For “variant CD80 IgV-Fc (inert) E35D/D46V/L85Q (Fc fusion)”, in the assay with CD28 (human), the IL-2-luciferase RLU, Jurkat + CHO/OKT3/PD-L1 aAPC, 0.6 nM turned out to be 611 RLU; the IL-2-luciferase RLU, Jurkat + CHO/OKT3/PD-L1 aAPC, 1.9 nM came to 1000 RLU; the IL-2-luciferase RLU, Jurkat + CHO/OKT3/PD-L1 aAPC, 5.6 nM worked out at 1490 RLU; the IL-2-luciferase RLU, Jurkat + CHO/OKT3 aAPC (no PD-L1), 5.6 nM was found to be 511 RLU. Further, in the assay with CD28 (human), the IL-2-luciferase RLU, Jurkat + CHO/OKT3 aAPC (no PD-L1), 16.7 nM turned out to be 554 RLU and the IL-2-luciferase RLU, Jurkat + CHO/OKT3 aAPC (no PD-L1), 50 nM stood at 720 RLU. In the assay with PD-L1 (human), the IL-2 release, primary T cells; K562/OKT3/PD-L1; 10 nM stood at 102 and the IL-2 release, primary T cells; K562/OKT3/PD-L1; 100 nM amounted to 1430.

Take “variant CD80 IgV-Fc (effector) E35D (Fc fusion)”: in the assay with CD28 (human), the IL-2 release, primary T cells; K562/OKT3 (No PD-L1); 1 nM turned out to be 7600; the IL-2 release, primary T cells; K562/OKT3 (No PD-L1); 10 nM amounted to 7990; the IL-2 release, primary T cells; K562/OKT3 (No PD-L1); 100 nM was determined as 8380; the RLU, Jurkat/IL2 reporter; K562/OKT3 aAPC, FcR Dependent Cross-Linking (No PD-L1); 0.6 nM is 1400 RLU. Besides, in the assay with CD28 (human), the RLU, Jurkat/IL2 reporter; K562/OKT3 aAPC, FcR Dependent Cross-Linking (No PD-L1); 1.9 nM worked out at 1330 RLU; the RLU, Jurkat/IL2 reporter; K562/OKT3 aAPC, FcR Dependent Cross-Linking (No PD-L1); 5.6 nM came out at 1300 RLU; the RLU, Jurkat/IL2 reporter; K562/OKT3 aAPC, FcR Dependent Cross-Linking (No PD-L1); 16.7 nM worked out at 1320 RLU; the RLU, Jurkat/IL2 reporter; K562/OKT3 aAPC, FcR Dependent Cross-Linking (No PD-L1); 50 nM is 1200 RLU. Moreover, in the assay with PD-L1 (human), the RLU, Jurkat/IL2 reporter; K562/OKT3/PD-L1 aAPC, Combination of FcR and/or PD-L1 Dependent Cross-Linking; 0.6 nM turned out to be 920 RLU; the RLU, Jurkat/IL2 reporter; K562/OKT3/PD-L1 aAPC, Combination of FcR and/or PD-L1 Dependent Cross-Linking; 1.9 nM was determined as 1110 RLU; the RLU, Jurkat/IL2 reporter; K562/OKT3/PD-L1 aAPC, Combination of FcR and/or PD-L1 Dependent Cross-Linking; 5.6 nM amounted to 1400 RLU; the RLU, Jurkat/IL2 reporter; K562/OKT3/PD-L1 aAPC, Combination of FcR and/or PD-L1 Dependent Cross-Linking; 16.7 nM was 1760 RLU. The RLU, Jurkat/IL2 reporter; K562/OKT3/PD-L1 aAPC, Combination of FcR and/or PD-L1 Dependent Cross-Linking; 50 nM with PD-L1 (human) came out at 2270 RLU.

These data come from patent US20210130436A1.
